We go through one substance from patent US20150307617A1.

Experiment [1] deals with human OX40 expressed on transfected BT-474 cells (fusion with 5' HSV glycoprotein D tag) (human) (UniProt P43489). As to the kind of experiment: flow cytometry, ACT35-PE staining of the BT474-human OX40 low clone. On the technique in general: Flow cytometry measures light scatter and fluorescence of single cells or particles in a stream.
Experiment [2] shares this target. Put plainly: flow cytometry, ACT35-PE staining of the BT474-human OX40-high clone.

Chain of human OX40 expressed on transfected BT-474 cells (fusion with 5' HSV glycoprotein D tag) (human) (P43489 29-277): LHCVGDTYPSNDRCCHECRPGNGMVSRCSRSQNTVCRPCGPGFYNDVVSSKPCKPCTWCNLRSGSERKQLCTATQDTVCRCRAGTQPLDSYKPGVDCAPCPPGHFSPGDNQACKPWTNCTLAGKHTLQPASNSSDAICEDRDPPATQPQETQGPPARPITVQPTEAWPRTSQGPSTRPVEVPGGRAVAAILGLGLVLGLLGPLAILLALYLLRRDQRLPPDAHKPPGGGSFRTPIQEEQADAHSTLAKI

On to “anti-human OX40 (PE) (clone ACT35) (antibody)”, for which the MFI in experiment [1] stood at 994 MFI; in experiment [2], 5240 MFI.
